{"source": "patent US20210269492A1", "biological_target": "Piromyces ScaA fragment (Piromyces)", "assay": "SPR equilibrium analysis", "data": [{"substance": "P. finnis single dockerin domain", "values": [{"measurement": "Kd", "value": 700, "unit": "nM"}]}, {"substance": "W28F dockerin mutant", "values": [{"measurement": "Kd", "value": 2000, "unit": "nM"}]}]}
